Holding throughout (test): ITC
Experiment [1] concerns the target PSD-95 PDZ3-C (aa R306-S412) (human) (UniProt P78352).
In experiment [2] the target is PSD-95 PDZ3 (aa R306–E398) (human) (UniProt P78352).
The target in experiment [3] is PSD-95 PSG WT (aa R306-L721) (human, UniProt P78352-3 306-721).

Results on two molecules are retold here after paper PMC5564291 (Cell, 2016).

Molecule “N-terminal thioredoxin-tagged last 30 residues of SynGAP (SynGAP PBM) (domain or fragment)” showed a fold higher affinity than PDZ3 in experiment [1] of 15 fold. Further, the equilibrium dissociation constant (Kd) in experiment [2] came to 27 µM.

B1: SynGAP CC-PBM L-D&K-D mutant (L1202D and K1252D) (domain or fragment, mouse, UniProt J3QQ18 1147-1308, looked up)
chain: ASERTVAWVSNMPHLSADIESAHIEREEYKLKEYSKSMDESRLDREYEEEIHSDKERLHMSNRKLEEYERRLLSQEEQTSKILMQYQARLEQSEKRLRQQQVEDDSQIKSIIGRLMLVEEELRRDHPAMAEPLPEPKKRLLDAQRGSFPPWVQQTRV
Turning to B1, in experiment [3], the binding result is “binds”.
